The supplement of paper PMC9112550, “Optimization of the antimicrobial peptide Bac7 by deep mutational scanning” (BMC Biology, 2022)

System: Escherichia coli TOP10
Assay: shrunken log2 fold change of peptide-encoding DNA abundance (4.5 h post-induction vs induction); higher = less antimicrobial activity (less host growth inhibition)
Conditions: time post-induction: 4.5 h; library: site-saturation at positions 5, 18, 19, 20
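Also: peptides expressed intracellularly from a pBAD plasmid library in pooled LB shake-flask culture, induced with 0.3% L-arabinose, DNA abundance read by NGS, three biological replicates, DESeq2 with apeglm shrinkage.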

Row | Sequence | shrunken log2 fold change
1 | RRIRCRPPRLPRPRPRPCKSPRP | -0.0591
2 | RRIRPRPPRLPRPRPRPYMCPRP | -0.714
3 | RRIRDRPPRLPRPRPRPDAEPRP | 1.23
4 | RRIRKRPPRLPRPRPRPINYPRP | -0.0959
5 | RRIRERPPRLPRPRPRPDRDPRP | -0.0369
6 | RRIRARPPRLPRPRPRPVRQPRP | 0.855
7 | RRIRTRPPRLPRPRPRPCTNPRP | -0.0102
8 | RRIRHRPPRLPRPRPRPCKCPRP | -0.174
9 | RRIRIRPPRLPRPRPRPRREPRP | 0.123
10 | RRIRERPPRLPRPRPRPRKLPRP | -0.0356
11 | RRIRMRPPRLPRPRPRPSKQPRP | 0.495
12 | RRIRARPPRLPRPRPRPPDLPRP | 0.829
13 | RRIRGRPPRLPRPRPRPMFDPRP | 0.662
14 | RRIRFRPPRLPRPRPRPLFWPRP | 0.201
15 | RRIRFRPPRLPRPRPRPDFAPRP | 0.0852
16 | RRIRPRPPRLPRPRPRPHQCPRP | -0.0701
17 | RRIRTRPPRLPRPRPRPREMPRP | 0.101
18 | RRIRHRPPRLPRPRPRPRLWPRP | 0.63
19 | RRIRERPPRLPRPRPRPFWRPRP | 0.0935
20 | RRIRSRPPRLPRPRPRPADGPRP | 0.218

Row | Sequence | shrunken log2 fold change
21 | RRIRHRPPRLPRPRPRPTNVPRP | -0.558
22 | RRIRFRPPRLPRPRPRPQTPPRP | 0.626
23 | RRIRPRPPRLPRPRPRPECKPRP | -0.352
24 | RRIRERPPRLPRPRPRPAVTPRP | -0.13
25 | RRIRARPPRLPRPRPRPHTFPRP | -0.314
26 | RRIRARPPRLPRPRPRPSFRPRP | -0.262
27 | RRIRKRPPRLPRPRPRPNLTPRP | -0.112
28 | RRIRYRPPRLPRPRPRPWAAPRP | -0.0914
29 | RRIRWRPPRLPRPRPRPNESPRP | -0.0337
30 | RRIRRRPPRLPRPRPRPQLVPRP | 0.0448
31 | RRIRFRPPRLPRPRPRPDVKPRP | -0.0558
32 | RRIRSRPPRLPRPRPRPNFRPRP | -0.113
33 | RRIRVRPPRLPRPRPRPFEIPRP | -0.486
34 | RRIRRRPPRLPRPRPRPHFEPRP | -0.211
35 | RRIRLRPPRLPRPRPRPVKMPRP | -0.327
36 | RRIRSRPPRLPRPRPRPLTSPRP | 1.55
37 | RRIRLRPPRLPRPRPRPDYYPRP | -0.216
38 | RRIRQRPPRLPRPRPRPCDKPRP | 0.244
39 | RRIRGRPPRLPRPRPRPHPNPRP | 0.547
40 | RRIRTRPPRLPRPRPRPRSCPRP | 0.423

Row | Sequence | shrunken log2 fold change
41 | RRIRQRPPRLPRPRPRPHGGPRP | -0.0841
42 | RRIRNRPPRLPRPRPRPWWFPRP | -0.0934
43 | RRIRSRPPRLPRPRPRPAPRPRP | 0.845
44 | RRIRSRPPRLPRPRPRPNYGPRP | -0.0945
45 | RRIRCRPPRLPRPRPRPAPKPRP | 1.02
46 | RRIRTRPPRLPRPRPRPNLYPRP | -0.255
47 | RRIRWRPPRLPRPRPRPYMNPRP | -1.44
48 | RRIRMRPPRLPRPRPRPKCPPRP | 0.108
49 | RRIRVRPPRLPRPRPRPGRAPRP | 0.685
50 | RRIRLRPPRLPRPRPRPCFTPRP | -0.497
51 | RRIRHRPPRLPRPRPRPAVAPRP | 0.117
52 | RRIRMRPPRLPRPRPRPSHEPRP | 0.267
53 | RRIRRRPPRLPRPRPRPVILPRP | -0.259
54 | RRIRLRPPRLPRPRPRPKFKPRP | -0.147
55 | RRIRTRPPRLPRPRPRPQIIPRP | -0.358
56 | RRIRVRPPRLPRPRPRPRDKPRP | -0.179
57 | RRIRHRPPRLPRPRPRPCKDPRP | -0.332
58 | RRIRFRPPRLPRPRPRPGIDPRP | -0.0216
59 | RRIRFRPPRLPRPRPRPCGFPRP | 0.0163
60 | RRIRMRPPRLPRPRPRPDKAPRP | -0.041
